# In PMC4891106:
# Biological target: Cbl (UniProt P22681)
# Test: anti-CD93 co-IP, anti-Cbl blot
# Conditions: reference: wild type CD93 (res85); sites Y628,Y644
substance,measurement,value
CD93 (from UniProt Q9NPY3) Y628F/Y644F (res85Y1Y2),binding against the reference,lost
